From US20240043527A1 (BioNTech SE, priority 2020, published 2024) come the findings set out here.

In one series the target is T1, CLDN-18.2 (Homo sapiens, UniProt P56856).
T1 construct: expressed in transfected cells; host or cells: HEK293
Briefly: Flow cytometric binding assay on CLDN-18.2+ HEK293 transfectants. As to conditions: CHO-K1 supernatant on CLDN-18.2+ HEK293 transfectants. (In general: Flow cytometry measures light scatter and fluorescence of single cells or particles in a stream.)

A short description of series [1]: Single dose PK study in rats (ELISA). The series is classed as in vivo, RjHan:Wister rats. As to conditions: single IV dose, post administration. On the procedure: RjHan:Wister rats received a single IV injection of 0.04, 0.10, 0.40 or 1.20 mg/kg of RB_RMAB01 and 3.60 mg/kg of IMAB362 reference protein. Plasma was sampled 2, 6, 8, 10, 22, 24, 27, 30, 48, 72, 96, 168, 216, 264 and 336 hours post administration. RiboMab01 concentrations in plasma measured via ELISA are shown. Error bars are standard errors of the mean (n=3).
A general note: In an ELISA, binding on a coated surface is turned into a signal by an enzyme label.

Series [2] in a line: Repetitive dose PK study in mice (ELISA). The series is classed as in vivo, Balb/cJRj mice. As to conditions: five weekly IV doses. On the procedure:
Balb/cJRj mice received IV injections of 1 μg (˜0.04 mg/kg), 3 μg (˜0.10 mg/kg), 10 μg (˜0.40 mg/kg) or 30 μg (˜1.20 mg/kg) RB_RMAB01 and 80 μg (˜3.20 mg/kg) IMAB362 reference protein at test days 1, 8, 15, 21 and 29. Plasma was sampled 24 hours pre- and 24 hours post-dosing. RiboMab01 concentrations in plasma measured via ELISA are shown. Dotted lines indicate injections. Error bars are standard errors of the mean (n=3).

The nature of series [3]: Repetitive dose PK study in NHP (ELISA). The class given is in vivo, Cynomolgus monkey. Here is the method:
NHP received IV injections of 0.1, 0.4 or 1.6 mg/kg RB_RMAB01 at test days 1, 8 and […] was sampled 6, 24, 48, 72, 96 and 168 hours post 1st and 3rd dosing and 48, 72 and 168 hours post 2nd dosing as well as 264, 336 and 504 hours post 3rd dosing. RiboMab01 concentrations in plasma measured via ELISA are shown. Error bars are standard errors of the mean (n=3).
FIG. 14 is a graph showing dose-exposure correlation of RB_RMAB01 in cynomolgus monkey at tmax. Cynomolgus monkeys (n=3) received IV injections of 0.1, 0.4 or 1.6 mg/kg RB_RMAB01. Dose-dependent RiboMab01 concentrations (mean, n=3) in plasma measured via ELISA at Cmax are depicted. A green line indicates a dose that can be administered to a human subject and its corresponding anticipated serum concentration.
Treatment groups received three IV bolus injections of either 0.1 mg/kg, 0.4 mg/kg or 1.6 mg/kg at weekly intervals. As controls, saline or empty LNPs were administered likewise. Serum was sampled 6, 24, 48, 72, 96 and 168 hours post 1st and 3rd dosing and 48, 72 and 168 hours post 2nd dosing as well as 264, 336 and 504 hours post 3rd dosing.

In series [4] the test system is CLDN-18.2+ NUG-C4 transfectants. Briefly: Ex vivo ADCC assay with serum of dosed non-human primates. The series is classed as cell-based. As to conditions: for ADCC target cell lysis: serum 24 hours and 168 hours post IV dosing of 0.1, 0.4, 1.6 mg/kg. Here is the method:
Non-Human Primates (NHP) received three repetitive doses of 0.1, 0.4 or 1.6 mg/kg RB_RMAB01 once weekly. RiboMab01-containing serum of all monkeys sampled 24 hours (black bars) and 168 hours (white bars) post 1st injection was directed to luciferase-based ex vivo ADCC assays. […] Human PBMCs from two different healthy donors (24 h, donor 1, 168 h, donor 2) served as effector cells. (Panel A) RiboMab01-mediated ADCC of NUG-C4 cells after 48 hours incubation is shown. (Panel B) Unspecific lysis on target-negative MDA-MB-231 cells is shown. Error bars are standard error of the mean (n=3). (Panel C) Serum of NHP No. 14 (1.6 mg/kg RB_RMAB01, RiboMab01 serum concentration 232 μg/mL) collected 48 hours after the 3rd dosing was used for a luciferase-based ex vivo ADCC assays. […] Human PBMCs of a healthy donor served as effector cells. […] Incubation time was 48 hours. Error bars are standard errors of the mean (n=3).
ADCC assays were performed as described in Example 2. […] Purified IMAB362 served as assay reference protein.

By EC50 is commonly meant the midpoint of the concentration-response curve.

As to “CLDN-18.2-targeting RiboMab: CLDN-18.2-targeting IgG antibody (IMAB362 delivered as ribonucleic acid) expressed from mRNAs encoding heavy and light chain”, the “binding to CLDN-18.2 polypeptide” value in the series with CLDN-18.2 was “bound preferentially”; in the series with CLDN-18.2 (listed as RiboMab01), “binds target specific to CLDN-18.2”. In addition, the “time of peak concentration” value in series [1] worked out at 24 h. Also, in series [2] (30 μg, 24 hours post-dosing), the “peak plasma concentration of RiboMab” value was not above 1000 µg/mL. In addition, the “RiboMab levels on weekly administration” value in series [2] was “Sustained CLDN-18.2-targeting RiboMab”. In series [3] (NHP No. 14, 1.6 mg/kg, 48 hours after the 3rd dosing), the “RiboMab serum concentration, highest determined” value was determined as 232 µg/mL. The “Cmax compared with IMAB362” value in series [3] (between 48-72 hours post administration) is reported as “notably lower Cmax than IMAB362”. This substance came in with a tmax in series [3] (dose-exposure correlation in cynomolgus monkey, FIG. 14) of 48 h. For the same substance, the “peak serum concentration of RiboMab” value in series [3] (highest dose 1.6 mg/kg, 48-72 hours post 3rd administration) was found to be 231.7 µg/mL. In addition, in series [3] (post 1st dosing), the “time RiboMab detectable (termination of the study)” value turned out to be 840 h. For the same substance, in series [3] (three weekly IV doses), the “expression on weekly administration” value is listed as “sustainable”. Moreover, the “ADCC target cell lysis” value in series [4] is “high and dose-dependent target cell lysis”; in series [4] (listed as RiboMab01) it was “dose-dependent ADCC”. In addition, the half-maximal effective concentration (EC50) in series [4] (serum of monkey No. 14 (1.6 mg/kg) 48 hours after 3rd dosing or recombinant reference protein, 48 hours incubation) amounted to 0.066 nM. Besides, the “ADCC EC50” value in series [4] (serum of monkey No. 14, 48 hours after 3rd injection, 10-point dilution row) is 0.01 µg/mL.
